{
  "source": "paper doi:10.1101/2020.07.07.191163",
  "about": "(bioRxiv, 2020)",
  "proteins": {"B1": {"name": "Bacillus subtilis pyruvate kinase PykA (enzyme, B. subtilis, UniProt P80885 1-585, looked up)", "chain": "MRKTKIVCTIGPASESIEMLTKLMESGMNVARLNFSHGDFEEHGARIKNIREASKKLGKNVGILLDTKGPEIRTHTMENGGIELETGKELIISMDEVVGTTDKISVTYEGLVHDVEQGSTILLDDGLIGLEVLDVDAAKREIKTKVLNNGTLKNKKGVNVPGVSVNLPGITEKDARDIVFGIEQGVDFIAPSFIRRSTDVLEIRELLEEHNAQDIQIIPKIENQEGVDNIDAILEVSDGLMVARGDLGVEIPAEEVPLVQKELIKKCNALGKPVITATQMLDSMQRNPRPTRAEASDVANAIFDGTDAIMLSGETAAGSYPVEAVQTMHNIASRSEEALNYKEILSKRRDQVGMTITDAIGQSVAHTAINLNAAAIVTPTESGHTARMIAKYRPQAPIVAVTVNDSISRKLALVSGVFAESGQNASSTDEMLEDAVQKSLNSGIVKHGDLIVITAGTVGESGTTNLMKVHTVGDIIAKGQGIGRKSAYGPVVVAQNAKEAEQKMTDGAVLVTKSTDRDMIASLEKASALITEEGGLTSHAAVVGLSLGIPVIVGLENATSILTDGQDITVDASRGAVYQGRASVL"}},
  "molecular_target": "the molecule itself",
  "assay": "native MS",
  "data": [
    {"protein": "B1", "values": [
      {"measurement": "stoichiometry N", "value": 4}
    ]}
  ]
}
